Measurements: the supplement of paper PMC7877785
± gives the uncertainty stated by the source.

Assay: self-splicing fitness, log relative to wild type (ln ratio); higher = more splicing; Tetrahymena group I intron in knt gene, E. coli kanamycin selection, DiMSum; sequences stand for … in CUCUCU…GGAGGGAAAAGUUAUCAGGCAUGCACCUGGUAGCUAGUCUUUAAACCAAUAGAUUGCAUCGGUUUAAAAGGCAAGACCGUCAAAUUGCGGGAAAGGGGUCAACAGCCGUUCAGUACCAAGUCUCAGGGGAAACUUUGAGAUGGCCUUGCAAAGGGUAUGGUAAUAAGCUGACGGACAUGGUCCUAACCACGCAGCCAAGUCCUAAGUCAACAGAUCUUCUGUUGAUAUGGAUGCAGUUCACAGACUAAAUGUCGGUCGGGGAAGAUGUAUUCUUCUCAUAAGAUAUAGUCGGACCUCUCCUUAAUGGGAGCUAGCGGAUGAAGUGAUGCAACACUGGAGCCGCUGGGAACUAAUUUGUAUGCGAAAGUAUAUUGAUUAGUUUUGGAGUACUCGUGGUCG
Procedure, shortened: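 Colonies from six replicate transformations of E. coli BL21(DE3) were pooled and amplicon-sequenced on an Illumina HiSeq 2500. The library placed an intron with all eight P1ex-region nucleotides randomised inside the knt kanamycin-resistance gene on pET-22b(+), and cells grew overnight at 37°C or 30°C on LB agar with or without 25 μg/mL kanamycin (plus 100 μg/mL carbenicillin, 50 μM IPTG, 0.2% rhamnose). Fitness is the DiMSum error-weighted combination of wild-type-normalised replicate fold changes, kanamycin versus none.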

Row | Sequence | self-splicing fitness (ln) (30 °C) | self-splicing fitness (ln) (37 °C)
1 | UUCGAGCAAUAUUACGGUAA | -1.85 ± 0.25 | -1.55 ± 0.19
2 | ACCUAGCAAUAUUACGAUGG | -3.01 ± 0.17 | -0.981 ± 0.18
3 | AAGGAGCAAUAUUACGGAAC |  | -2.52 ± 0.36
4 | UAUAAGCAAUAUUACGGCAU | -0.623 ± 0.077 | -0.223 ± 0.098
5 | GAAAAGCAAUAUUACGUACU | -0.864 ± 0.069 | -0.0522 ± 0.1
6 | AACGAGCAAUAUUACGUUUU | -3.9 ± 0.14 | -2.79 ± 0.14
7 | UGUGAGCAAUAUUACGGUUC | -2.76 ± 0.21 | -2.9 ± 0.24
8 | GAAUAGCAAUAUUACGAGCG | -1.62 ± 0.069 | -0.354 ± 0.076
9 | GUUAAGCAAUAUUACGGGUG | -3.29 ± 0.15 | -2.39 ± 0.14
10 | UGAGAGCAAUAUUACGAUAG | -3.19 ± 0.38 | -2.11 ± 0.26
11 | GAGCAGCAAUAUUACGGUAU | -2.9 ± 0.11 | -1.34 ± 0.1
12 | CCGGAGCAAUAUUACGCUAG | -3.07 ± 0.21 | -2.33 ± 0.26
13 | GUCAAGCAAUAUUACGUGGA | -2.86 ± 0.17 | -1.58 ± 0.12
14 | UUGCAGCAAUAUUACGCUUA | -0.263 ± 0.12 | -0.0443 ± 0.13
15 | UAGGAGCAAUAUUACGACCA | -1.68 ± 0.13 | -0.415 ± 0.19
16 | GCGUAGCAAUAUUACGCCUU | -3.7 ± 0.33 | -1.3 ± 0.21
17 | GGAAAGCAAUAUUACGUACG | -0.792 ± 0.097 | -0.786 ± 0.11
18 | CAUCAGCAAUAUUACGACAC | -1.78 ± 0.21 | -3.05 ± 0.37
19 | UGAGAGCAAUAUUACGUUUA | -3.46 ± 0.39 | 
20 | GCUGAGCAAUAUUACGAACA | -3.44 ± 0.36 | -2.89 ± 0.38
21 | UAUAAGCAAUAUUACGGAAC | -4.02 ± 0.42 | -2.94 ± 0.41
22 | UACGAGCAAUAUUACGGGAG | -3.43 ± 0.22 | -2.72 ± 0.39
23 | CAUUAGCAAUAUUACGGCAA | -2 ± 0.22 | -3.22 ± 0.47
24 | CAGGAGCAAUAUUACGAGGU | -2.48 ± 0.2 | -2.84 ± 0.25
25 | AAAGAGCAAUAUUACGCUAA |  | -1.52 ± 0.28

Row | Sequence | self-splicing fitness (ln) (30 °C) | self-splicing fitness (ln) (37 °C)
26 | CCCUAGCAAUAUUACGAGGC | -4.41 ± 0.42 | -4.06 ± 0.18
27 | AUCAAGCAAUAUUACGCAGC | -2.12 ± 0.2 | -1.8 ± 0.25
28 | AGGCAGCAAUAUUACGCUAC | -2.44 ± 0.23 | 
29 | CAGCAGCAAUAUUACGUAGA | -2.13 ± 0.071 | -1.57 ± 0.097
30 | CGUAAGCAAUAUUACGCUCC | -2.95 ± 0.41 | -1.74 ± 0.48
31 | CUUGAGCAAUAUUACGCGCU | -2.45 ± 0.29 | -1.22 ± 0.39
32 | ACGCAGCAAUAUUACGUCUA | -1.55 ± 0.096 | -1.22 ± 0.08
33 | AAACAGCAAUAUUACGUGCA | -1.19 ± 0.068 | -0.303 ± 0.074
34 | AGGAAGCAAUAUUACGUCAC | -3.41 ± 0.2 | -3.65 ± 0.3
35 | CUAAAGCAAUAUUACGGUUA | -3.78 ± 0.33 | -2.72 ± 0.25
36 | CUGCAGCAAUAUUACGCCAC | -2.82 ± 0.26 | -2.82 ± 0.44
37 | CCAUAGCAAUAUUACGCAUA | -3.76 ± 0.26 | -2.72 ± 0.29
38 | UAAGAGCAAUAUUACGUGAA | -1.72 ± 0.17 | -1.74 ± 0.29
39 | CGAGAGCAAUAUUACGGCUU |  | -3.05 ± 0.4
40 | CUAAAGCAAUAUUACGGGUG | 0.107 ± 0.039 | 0.493 ± 0.064
41 | GGUUAGCAAUAUUACGUAUG | -3.18 ± 0.17 | -0.52 ± 0.15
42 | UUGAAGCAAUAUUACGUCAG | 0.252 ± 0.076 | 0.934 ± 0.11
43 | GCGAAGCAAUAUUACGACAG | -3.79 ± 0.16 | -1.97 ± 0.21
44 | AUAUAGCAAUAUUACGGGAG | -4.22 ± 0.39 | -1.59 ± 0.24
45 | CUGGAGCAAUAUUACGGGUA | -2.59 ± 0.23 | -1.77 ± 0.26
46 | UGUCAGCAAUAUUACGGAUG | -2.07 ± 0.088 | -0.996 ± 0.1
47 | UCAUAGCAAUAUUACGCGCC | -3.62 ± 0.44 | -1.88 ± 0.33
48 | UCCCAGCAAUAUUACGAGGU | -1.76 ± 0.071 | -0.885 ± 0.073
49 | GCUUAGCAAUAUUACGCAAA | -2.95 ± 0.27 | -1.51 ± 0.2
